Common to all, as to assay: SPR
(Surface plasmon resonance follows binding to a sensor surface in real time, without labels.)

Assay [1] has as its target HSA peptide 4 (human, UniProt P02768).
Assay [2] has as its target HSA peptide 13 (human, UniProt P02768).
Assay [3] concerns the target HSA peptide 40 (human, UniProt P02768).

B1: rituximab (antibody, V domains shown)
VH: QVQLQQPGAELVKPGASVKMSCKASGYTFTSYNMHWVKQTPGRGLEWIGAIYPGNGDTSYNQKFKGKATLTADKSSSTAYMQLSSLTSEDSAVYYCARSTYYGGDWYFNVWGAGTTVTVSA
VL: QIVLSQSPAILSASPGEKVTMTCRASSSVSYIHWFQQKPGSSPKPWIYATSNLASGVPVRFSGSGSGTSYSLTISRVEAEDAATYYCQQWTSNPPTFGGGTKLEIK
modifications: AlexaFluor 488 label (only in the ImageStream experiment, a3)
Usually Kd stands for the constant that tells how readily two partners part at equilibrium. The low end stands for a tighter complex, the high end for a looser complex. For the molecule B1, the values for the dissociation constant Kd in assay [1], in assay [2] and in assay [3] were 57 nM, 400 nM and 0.52 nM, respectively.

Values taken from publication PMC5381215 (2017).
